# Test results as given in paper PMC2408619 (2008).
# T1: Biotinylated Prn-E (pertactin residues 38-640 with N-terminal biotinylation sequence) (B. bronchiseptica, UniProt Q03035 38-640, biotin (in vivo biotinylation of the N-terminal biotinylation sequence))
# T1 chain: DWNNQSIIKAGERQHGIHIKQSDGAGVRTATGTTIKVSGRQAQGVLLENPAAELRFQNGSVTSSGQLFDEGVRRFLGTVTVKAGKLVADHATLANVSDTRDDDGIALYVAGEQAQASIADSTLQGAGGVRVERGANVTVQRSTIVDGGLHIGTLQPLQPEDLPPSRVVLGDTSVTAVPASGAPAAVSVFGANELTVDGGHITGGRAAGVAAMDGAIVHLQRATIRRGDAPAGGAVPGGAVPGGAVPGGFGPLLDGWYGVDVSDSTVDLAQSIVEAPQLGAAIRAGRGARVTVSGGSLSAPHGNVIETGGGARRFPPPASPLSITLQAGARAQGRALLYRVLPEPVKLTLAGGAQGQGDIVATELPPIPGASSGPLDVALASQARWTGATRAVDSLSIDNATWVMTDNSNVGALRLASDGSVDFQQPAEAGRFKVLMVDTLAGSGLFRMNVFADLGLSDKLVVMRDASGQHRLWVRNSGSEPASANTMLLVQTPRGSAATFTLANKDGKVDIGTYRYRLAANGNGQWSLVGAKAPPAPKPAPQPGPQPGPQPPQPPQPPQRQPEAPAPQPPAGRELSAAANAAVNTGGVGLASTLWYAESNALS
# B1: Pertactin on the surface of Bvg+ B. bronchiseptica RB53 (receptor)
# chain: DWNNQSIIKAGERQHGIHIKQSDGAGVRTATGTTIKVSGRQAQGVLLENPAAELRFQNGSVTSSGQLFDEGVRRFLGTVTVKAGKLVADHATLANVSDTRDDDGIALYVAGEQAQASIADSTLQGAGGVRVERGANVTVQRSTIVDGGLHIGTLQPLQPEDLPPSRVVLGDTSVTAVPASGAPAAVSVFGANELTVDGGHITGGRAAGVAAMDGAIVHLQRATIRRGDAPAGGAVPGGAVPGGAVPGGFGPLLDGWYGVDVSDSTVDLAQSIVEAPQLGAAIRAGRGARVTVSGGSLSAPHGNVIETGGGARRFPPPASPLSITLQAGARAQGRALLYRVLPEPVKLTLAGGAQGQGDIVATELPPIPGASSGPLDVALASQARWTGATRAVDSLSIDNATWVMTDNSNVGALRLASDGSVDFQQPAEAGRFKVLMVDTLAGSGLFRMNVFADLGLSDKLVVMRDASGQHRLWVRNSGSEPASANTMLLVQTPRGSAATFTLANKDGKVDIGTYRYRLAANGNGQWSLVGAKAPPAPKPAPQPGPQPGPQPPQPPQPPQRQPEAPAPQPPAGRELSAAANAAVNTGGVGLASTLWYAESNALSKRLGELRLNPDAGGAWGRGFAQRQQLDNRAGRRFDQKVAGFELGADHAVAVAGGRWHLGGLAGYTRGDRGFTGDGGGHTDSVHVGGYATYIANSGFYLDATLRASRLENDFKVAGSDGYAVKGKYRTHGVGASLEAGRRFAHADGWFLEPQAELAVFRVGGGAYRAANGLRVRDEGGSSVLGRLGLEVGKRIELAGGRQVQPYIKASVLQEFDGAGTVRTNGIAHRTELRGTRAELGLGMAAALGRGHSLYASYEYSKGPKLAMPWTFHAGYRYSW
# B2: BPP-1 phage displaying Mtd-P1 (other)
# chain: MSTAVQFRGGTTAQHATFTGAAREITVDTDKNTVVVHDGATAGGFPLARHDLVKTAFIKADKSAVAFTRTGNATASIKAGTIVEVNGKLVQFTADTAITMPALTAGTDYAIYVCDDGTVRADSNFSAPTGYTSTTARKVGGFHYAPGSNAAAQAGGNTTAQINEYSLWDIKFRPAALDPRGMTLVAGAFWADIYLLGVNHLTDGTSKYNVTIADGSASPKKSTKFGGDGSAAYSDGAWYNFAEVMTHHGKRLPNYNEFQALAFGTTEATSSGGTDVPTTGVNGTGATSAWNIFTSKWGVVQASGCLWTWGNEFGGVNGASEYTANTGGRGSVYAQPAAALFGGAWNGTSLSGSRAALWYSGPSFSFAFFGARGVCDHLILE
# Tests used:
# [1] = molecular target: BPP-6 phage displaying Mtd-P6 (Bordetella bacteriophage BPP-6, UniProt Q775D6)
# [2] = molecular target: T1, Biotinylated Prn-E (pertactin residues …); test: SPR
# [3] = molecular target: B1
binder,measurement,setting,value
B1,Kd,[1],0.059 pM
B2,koff,[2],0.000636 s⁻¹
same,Kd,[3],3.7 pM
